Measurements: article PMC8606531, “The Impact of Rare Human Variants on Barrier-To-Auto-Integration Factor 1 (Banf1) Structure and Function”

Biological target: T1, Banf1 WT (Homo sapiens, UniProt O75531 1-89)
T1 sequence: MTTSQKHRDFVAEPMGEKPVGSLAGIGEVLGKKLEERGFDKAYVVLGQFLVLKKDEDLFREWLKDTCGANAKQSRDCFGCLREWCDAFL
Assay: EMSA; EC50; 10 mM KH2PO4, 100 mM NaCl, 0.01% IGEPAL, 5 nM Cy5 DNA, 30 min at 37 C; pH not stated; 8% gel in 1x TBE at 4 C
Details: protein: recombinant; tags: N-terminal His6 (pET-28a NdeI-XhoI); chain copies: 2; label: 5' Cy5 on forward strand; blunt

B1: Cy5 40 bp dsDNA (dsDNA)
DNA 1: AGGAGCGCCAGACCCACCAAGAGCCCTCTATCGGTTGGGA
DNA 2: TCCCAACCGATAGAGGGCTCTTGGTGGGTCTGGCGCTCCT
apparent K (half saturation): 15.1 ± 1.96 nM
